The source of these data is the Immune Epitope Database (IEDB).

Common to all, as to experiment: IEDB peptide-MHC binding, purified MHC/competitive/radioactivity; filed as Kd, often an IC50 or EC50 that approximates it; ≥ and ≤ were set here for values at or beyond the usual limits of such assays
Test [1] deals with HLA-A*11:01.
Test [2] has as its target HLA-A*33:01.
Test [3] addresses HLA-A*03:01.
Test [4] concerns the target HLA-A*68:01.
Test [5] has as its target HLA-A*31:01.
Setting [6] is: source organism: Vaccinia virus WR.
Setting [7] is: source organism: SARS coronavirus Tor2.
[8] abbreviates: source organism: Dengue virus 3 Martinique/1243/1999.
The mark [9] stands for this setting: source organism: Mammarenavirus whitewaterense.
Where [10] appears, read: source organism: Dengue virus 2 Jamaica/1409/1983.

With IMSMMNITR, the Kd (commonly the constant that tells how readily two partners part at equilibrium) turned out to be 61.2 nM in test [1] (setting [6]); 4.04 nM in test [2] (setting [6]); 870 nM in test [3] (setting [6]); 29.9 nM in test [4] (setting [6]); 517 nM in test [5] (setting [6]).
RLLACLCKHK: the Kd in test [1] (setting [7]) was 7.15 nM; in test [2] (setting [7]) it was 4450 nM; in test [3] (setting [7]), 0.221 nM; in test [4] (setting [7]) it was 8480 nM; in test [5] (setting [7]), 25.2 nM.
Take LLSGHNLAK: the Kd in test [1] (setting [7]) is 90.9 nM; in test [2] (setting [7]) it was no less than 77700 nM; in test [3] (setting [7]) it was 4.61 nM; in test [4] (setting [7]) it was 6580 nM; in test [5] (setting [7]) it was 6690 nM.
Taken in the same sequence, the figures for TQVYIAVNDK were 720 nM, 9360 nM, 186 nM, 1330 nM and 6720 nM.
In the case of TLEEAKTALK, the Kd is 4630 nM in test [1] (setting [7]); no less than 70000 nM in test [2] (setting [7]); 1350 nM in test [3] (setting [7]); no less than 10000 nM in test [4] (setting [7]); no less than 47600 nM in test [5] (setting [7]).
As to TLSLDYAWK, in test [3] (source organism: Dengue virus 1 Brazil/97-11/1997), the dissociation constant (Kd) amounted to 181 nM.
In the case of GSCVYNMMGK, the equilibrium dissociation constant (Kd) came to 25.8 nM in test [1] (setting [8]) and 104 nM in test [3] (setting [8]).
Regarding SLSPNDTTWI, the Kd is no less than 69700 nM in test [1] (setting [9]); no less than 60700 nM in test [2] (setting [9]); no less than 34600 nM in test [3] (setting [9]); no less than 70100 nM in test [4] (setting [9]); no less than 32300 nM in test [5] (setting [9]).
For NVQFVDINR, the Kd in test [1] (setting [6]) was 193 nM; in test [2] (setting [6]), 12.7 nM; in test [3] (setting [6]) it was no less than 23000 nM; in test [4] (setting [6]) it was 0.399 nM; in test [5] (setting [6]), 38.1 nM.
As to DTDIFSPENK, the Kd in test [1] (setting [6]) is 1680 nM; in test [2] (setting [6]) it was 16800 nM; in test [3] (setting [6]) it was 5880 nM; in test [4] (setting [6]) it was 42.2 nM; in test [5] (setting [6]), no less than 22500 nM.
Taken in the same sequence, the figures for SLVENNFFTK were 9.71 nM, 704 nM, 229 nM, 119 nM and 388 nM.
As to DIISRRDQR, the dissociation constant Kd is 105 nM in test [2] (setting [10]) and 36.1 nM in test [4] (setting [10]).
Consider LVCFPSTQR, for which the Kd was found to be 40.6 nM in test [1] (setting [6]); 73 nM in test [2] (setting [6]); 698 nM in test [3] (setting [6]); 10.8 nM in test [4] (setting [6]); 37.5 nM in test [5] (setting [6]).
Take VSILASSLLK: the dissociation constant (Kd) in test [1] (setting [10]) came to 26.2 nM; in test [3] (setting [10]), 9 nM.
As to QLVFNSISAR, the equilibrium dissociation constant (Kd) in test [1] (setting [6]) was 299 nM; in test [2] (setting [6]), 723 nM; in test [3] (setting [6]), 304 nM; in test [4] (setting [6]), 49.2 nM; in test [5] (setting [6]), 111 nM.
Taken in the same sequence, the figures for ATFIDVHIPK were 0.269 nM, 43.4 nM, 9.21 nM, 3.44 nM and 915 nM.
Regarding VQSKMSDVK, the Kd in test [1] (setting [7]) was 198 nM; in test [2] (setting [7]), no less than 25000 nM; in test [3] (setting [7]), 4160 nM; in test [4] (setting [7]), no less than 53500 nM; in test [5] (setting [7]), 7070 nM.
With RVMANNVKKK, the Kd was 96 nM in test [1] (setting [6]); no less than 28200 nM in test [2] (setting [6]); 103 nM in test [3] (setting [6]); 539 nM in test [4] (setting [6]); 760 nM in test [5] (setting [6]).
In the case of ETVKMGAFMY, the dissociation constant (Kd) was 1570 nM in test [1] (setting [6]); no less than 70000 nM in test [2] (setting [6]); no less than 70100 nM in test [3] (setting [6]); 61.6 nM in test [4] (setting [6]); no less than 31500 nM in test [5] (setting [6]).
For IFSPENKAFK, in that order: 756 nM, 2470 nM, 96.4 nM, 184 nM and 699 nM.
For TTYMDTFFR, in that order: 1.98 nM, 10.6 nM, 10.4 nM, 0.0507 nM and 16.6 nM.
Taken in the same sequence, the figures for IMSIGFEAR were 3140 nM, 367 nM, 4950 nM, 221 nM and 30.3 nM.
As for EVMRGKFGK, the Kd in test [1] (setting [8]) was 850 nM; in test [4] (setting [8]), 55.7 nM.
Take TLAILTALR: the equilibrium dissociation constant (Kd) in test [1] (setting [7]) worked out at 4460 nM; in test [2] (setting [7]) it was 833 nM; in test [3] (setting [7]), 3670 nM; in test [4] (setting [7]) it was 117 nM; in test [5] (setting [7]) it was 326 nM.
On to NARMATMLEY, for which the equilibrium dissociation constant (Kd) in test [1] (setting [6]) was 34.3 nM; in test [2] (setting [6]) it was no less than 69100 nM; in test [3] (setting [6]) it was 169 nM; in test [4] (setting [6]), 455 nM; in test [5] (setting [6]), 734 nM.
